Columns and labels:
St3Cas9;AcrIIA24 = St3Cas9;AcrIIA24 (Streptococcus …, UniProt Q03JI6;A0A3G8FCC3 1-1388;1-104, |); experiment: EMSA; sgRNA; AcrIIA24 added before DNA; supershift; 20 mM Tris-HCl pH 7.6, 150 mM KCl, 5 mM EDTA (Results text: 10 mM EDTA), 5 mM MgCl2, 1 mM DTT, 5% glycerol, 50 ug/ml heparin, 0.01% Tween 20, 100 ug/ml BSA; RNP and DNA steps 37 C 10 min, Acr RT 20 min; RNP 256 nM, DNA 20 nM; RNA EMSA 256 nM Cas9 and sgRNA, 37 C; details: protein: recombinant;recombinant; tags: His (pET28a, Ni-NTA);tag removed by TEV; copies: 1;1; label: Cy5 on target strand; blunt
St1Cas9;AcrIIA30 = St1Cas9;AcrIIA30 (Streptococcus …, UniProt Q03LF7; 1-1121;, |); experiment: EMSA; sgRNA; AcrIIA30 added after DNA; supershift; 20 mM Tris-HCl pH 7.6, 150 mM KCl, 5 mM EDTA (Results text: 10 mM EDTA), 5 mM MgCl2, 1 mM DTT, 5% glycerol, 50 ug/ml heparin, 0.01% Tween 20, 100 ug/ml BSA; RNP and DNA steps 37 C 10 min, Acr RT 20 min; RNP 256 nM, DNA 20 nM; RNA EMSA 256 nM Cas9 and sgRNA, 37 C; details: protein: recombinant;recombinant; tags: His (pET28a, Ni-NTA);tag removed by TEV; copies: 1;1; label: Cy5 on target strand; blunt
SpyCas9;AcrIIA32.1 = SpyCas9;AcrIIA32.1 (Streptococcus pyogenes;Streptococcus …, UniProt Q99ZW2; 1-1368;, |); experiment: EMSA; sgRNA; AcrIIA32.1 added after DNA; supershift; 20 mM Tris-HCl pH 7.6, 150 mM KCl, 5 mM EDTA (Results text: 10 mM EDTA), 5 mM MgCl2, 1 mM DTT, 5% glycerol, 50 ug/ml heparin, 0.01% Tween 20, 100 ug/ml BSA; RNP and DNA steps 37 C 10 min, Acr RT 20 min; RNP 256 nM, DNA 20 nM; RNA EMSA 256 nM Cas9 and sgRNA, 37 C; details: protein: recombinant;recombinant; tags: ;tag removed by TEV; label: Cy5 on target strand; blunt

B1: Substrate DNA, St3Cas9 sgRNA target (dsDNA)
DNA 1: CTCACGGGTGTCATTCTCCACTCAGTGGCAGACCTTGCTCCCGCGAGGAGTAGTCG
DNA 2: CGACTACTCCTCGCGGGAGCAAGGTCTGCCACTGAGTGGAGAATGACACCCGTGAG
binding result (St3Cas9;AcrIIA24): binds

B2: Substrate DNA, St1Cas9 sgRNA target (dsDNA)
DNA 1: CTCACGGGTGTCATTCTCCACTCAGTGGCAGACCTTGCTCCCGCGAGGAGTAGTCG
DNA 2: CGACTACTCCTCGCGGGAGCAAGGTCTGCCACTGAGTGGAGAATGACACCCGTGAG
binding result (St1Cas9;AcrIIA30): binds

B3: Substrate DNA, SpyCas9 sgRNA target (dsDNA)
DNA 1: CTCACGGGTGTCATTCTCCACTCAGTGGCAGACCTTGCTCCCGCGAGGAGTAGTCG
DNA 2: CGACTACTCCTCGCGGGAGCAAGGTCTGCCACTGAGTGGAGAATGACACCCGTGAG
binding result (SpyCas9;AcrIIA32.1): binds

— PMC8934645, “Discovery of potent and versatile CRISPR–Cas9 inhibitors engineered for chemically controllable genome editing”
